The values below come from the supplement of paper PMC10567573.

The nature of this data set: protein stability index of a GFP-peptide fusion (GPS, HEK-293T) (PSI 1-6); higher = more stable. Conditions: c terminus: a fixed tail appended.

± gives the standard deviation.
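Further: 24-mer peptide tiles fused after GFP, lentivirally expressed, FACS-sorted into six equal bins by GFP/DsRed ratio, decoded by Illumina sequencing, PSI is the read-weighted mean bin number.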

With ISLRVYRKVLQAVHRGDGANPFQA [RTN2], the protein stability index stood at 2.59 ± 0.46 (treatment: DMSO) and 2.2 ± 0.32 (treatment: MLN4924 1 uM, 8 h).

For the sequence ISVLQQQGSLSNTYLSKVDPDGKK [FBXO33], the protein stability index turned out to be 4.45 ± 0.18 (treatment: DMSO) and 4.46 ± 0.2 (treatment: MLN4924 1 uM, 8 h).

Consider ITAFYNEARARARANRGILQQERQ [DNAJC4], for which the protein stability index runs as follows: (treatment: DMSO) 3.4 ± 0.5; (treatment: MLN4924 1 uM, 8 h) 3.81 ± 0.36.

As for ITLSQEQIQKYTDCLQFYVNSTLK [RTN1], the protein stability index reads like this: (treatment: DMSO) 2.08 ± 0.1; (treatment: MLN4924 1 uM, 8 h) 2.1 ± 0.086.

Turning to ITTKTADGKCAYRASYSDGKLKAP [MLH1], the protein stability index amounted to 3.78 ± 0.2 (treatment: DMSO) and 3.67 ± 0.12 (treatment: MLN4924 1 uM, 8 h).

Consider ITVAELREAVPALLGEPLAGPELD [CABP4], for which the protein stability index reads like this: (treatment: DMSO) 3.7 ± 0.39; (treatment: MLN4924 1 uM, 8 h) 3.84 ± 0.44.

Consider IVEKRVLAHLAPLFDNPKLDKELR [INTS3], for which the protein stability index is 2.13 ± 0.2 (treatment: DMSO) and 2.13 ± 0.37 (treatment: MLN4924 1 uM, 8 h).

In turn, IVRFLESNWFVWVTQMNHIPMHID [FADS1] had a protein stability index (treatment: DMSO) of 3.08 ± 0.95 and a protein stability index (treatment: MLN4924 1 uM, 8 h) of 3.1 ± 1.

In the case of IWAKTPPITRKAAQLYTLWVTFQV [DHCR7], the protein stability index amounted to 3.3 ± 0.52 (treatment: DMSO) and 2.81 ± 0.6 (treatment: MLN4924 1 uM, 8 h).

Regarding IWFIVPISCVICNDIMAYMFGFFF [CDS2], the protein stability index reads like this: (treatment: DMSO) 3.19 ± 0.25; (treatment: MLN4924 1 uM, 8 h) 3.11 ± 0.61.

Take IYPVWTYSYLVLLFPVFLATDYLR [SLC19A2]: the protein stability index came out at 3.11 ± 0.53 (treatment: DMSO) and 3.29 ± 0.37 (treatment: MLN4924 1 uM, 8 h).

In the case of KAPVQNEAPALGGGEYQEPGGNVK [BEX5], the protein stability index (treatment: DMSO) amounted to 5.48 ± 0.21 and the protein stability index (treatment: MLN4924 1 uM, 8 h) was determined as 5.54 ± 0.26.

For the sequence KAVNDETCKASHITSSVFPSASLG [FBXO34], the protein stability index (treatment: DMSO) came to 3.66 ± 0.2 and the protein stability index (treatment: MLN4924 1 uM, 8 h) turned out to be 3.61 ± 0.18.

Turning to KCIFTQFRIILGDFDYNAIDNANR [PKD2L1], the protein stability index stood at 2.41 ± 0.32 (treatment: DMSO) and 2.52 ± 0.36 (treatment: MLN4924 1 uM, 8 h).

As to KCKQVKEKCKEEFVEEIKKLATQH [ZMYND11], the protein stability index is, setting by setting: (treatment: DMSO) 4.12 ± 0.15; (treatment: MLN4924 1 uM, 8 h) 4.14 ± 0.23.

Take KCQVGFSSSDLVMRARDSVYHIEC [ISL2]: the protein stability index by setting is: (treatment: DMSO) 1.99 ± 0.36; (treatment: MLN4924 1 uM, 8 h) 2.3 ± 0.31.

KCRDLSALMHELSNDGARRQFEFY [BTBD10]: the protein stability index runs as follows: (treatment: DMSO) 2.06 ± 0.3; (treatment: MLN4924 1 uM, 8 h) 2.23 ± 0.3.

For the sequence KEFQQVFIPECNDDGTYSQVQCHS [SMOC2], the protein stability index stood at 4.01 ± 0.36 (treatment: DMSO) and 4.38 ± 0.29 (treatment: MLN4924 1 uM, 8 h).

Sequence KEGRPGIPGLPGLRGLPGERGTPG [SCARA5] registered a protein stability index (treatment: DMSO) of 4.21 ± 0.41 and a protein stability index (treatment: MLN4924 1 uM, 8 h) of 4.43 ± 0.24.

Regarding KENKDVIQKNKLKLTREQEELEEA [MNAT1], the protein stability index reads like this: (treatment: DMSO) 5.49 ± 0.29; (treatment: MLN4924 1 uM, 8 h) 5.37 ± 0.31.

As to KEQDGREVDWEYFYGLLFTSENLK [DFFB], the protein stability index (treatment: DMSO) was found to be 2.617 ± 0.019 and the protein stability index (treatment: MLN4924 1 uM, 8 h) came to 2.93 ± 0.01.

As to KEYPVVPRSTVRQKVASNHSPFSS [TBX5], the protein stability index stood at 3.61 ± 0.38 (treatment: DMSO) and 3.72 ± 0.32 (treatment: MLN4924 1 uM, 8 h).

Take KFPGQSSFLWQRGRKFLQKHLNAS [TOR1AIP2]: the protein stability index was found to be 2.47 ± 0.14 (treatment: DMSO) and 2.51 ± 0.22 (treatment: MLN4924 1 uM, 8 h).

Take KFRAKGRKPCKLMLQVVKILVVTV [MCOLN1]: the protein stability index runs as follows: (treatment: DMSO) 2.51 ± 0.39; (treatment: MLN4924 1 uM, 8 h) 2.16 ± 0.19.

As for KFSYMWTINNFSFCREEMGEVLKS [SPOPL], the protein stability index by setting is: (treatment: DMSO) 2.34 ± 0.25; (treatment: MLN4924 1 uM, 8 h) 2.19 ± 0.42.

Consider KGELAPELGEEPQPRDEEEAELEL [POLD4], for which the protein stability index reads like this: (treatment: DMSO) 5.44 ± 0.23; (treatment: MLN4924 1 uM, 8 h) 5.69 ± 0.13.

Take KGFSHLDVMLVECYDPKGDQWNIL [KLHL14]: the protein stability index runs as follows: (treatment: DMSO) 2.82 ± 0.6; (treatment: MLN4924 1 uM, 8 h) 2.9 ± 0.68.

Regarding KHAKKEREESLPNLLQYVRMPLLT [KLHL12], the protein stability index stood at 3.26 ± 0.26 (treatment: DMSO) and 3.28 ± 0.16 (treatment: MLN4924 1 uM, 8 h).

With KIGCGNFGELRLGKNLYTNEYVAI [CSNK1G1], the protein stability index was determined as 2.51 ± 0.54 (treatment: DMSO) and 2.12 ± 0.59 (treatment: MLN4924 1 uM, 8 h).

KIKRLRSQVQVSLEDYINDRQYDS [HNF4A]: the protein stability index reads like this: (treatment: DMSO) 3.23 ± 0.19; (treatment: MLN4924 1 uM, 8 h) 3.45 ± 0.15.

KIKSEEIEITFSYWDGSGHRRTVK [FAM50A] gave a protein stability index (treatment: DMSO) of 2.27 ± 0.21 and a protein stability index (treatment: MLN4924 1 uM, 8 h) of 2.43 ± 0.16.

Regarding KISKEEMVRRLKMVVKTFMDMDQD [PDS5B], the protein stability index by setting is: (treatment: DMSO) 2.26 ± 0.21; (treatment: MLN4924 1 uM, 8 h) 2.23 ± 0.25.

Regarding KKEDTEKERDLRDVGDWRKNIEEK [TNNI2], the protein stability index came to 5.38 ± 0.26 (treatment: DMSO) and 5.39 ± 0.21 (treatment: MLN4924 1 uM, 8 h).

Take KKLKIFAMPMQDIKMILKMVQLDS [PRAME]: the protein stability index (treatment: DMSO) was found to be 2.93 ± 0.58 and the protein stability index (treatment: MLN4924 1 uM, 8 h) amounted to 2.75 ± 0.56.

KKNNIKLYVRRVFIMDSCDELIPE [HSP90AB1] showed a protein stability index (treatment: MLN4924 1 uM, 8 h) of 2.06 ± 0.65.

For KKRVSMILQSPAFCEELESMIQEQ [ADD1], the protein stability index is, setting by setting: (treatment: DMSO) 3.58 ± 0.27; (treatment: MLN4924 1 uM, 8 h) 3.76 ± 0.43.

On to KLTDKHETVVSYLPLSHIAAQMMD [ACSBG2], for which the protein stability index came out at 2.66 ± 0.4 (treatment: DMSO) and 2.98 ± 0.43 (treatment: MLN4924 1 uM, 8 h).
